Positions count from the first letter of the chain named. “Also recorded” adds a separate entry of the source.
B1: EETI 2.5D-Axl: EETI 2.5D directly fused to N-terminus of wt Axl Ig1 (amino acids 21-132), SEQ ID NO: 84 (protein)
chain: GCPQGRGDWAPTSCSQDSDCLAGCVCGPNGFCGSRGTQAEESPFVGNPGNITGARGLTGTLRCQLQVQGEPPEVHWLRDGQILELADSTQTQVPLGEDEQDDWIVVSQLRITSLQLSDTGQYQCLVFLGHQTFVSQPGYVGLEGLP
B2: 2.5D-Fc: EETI-based knottin 2.5D fused to Fc domain of mouse Ig2a (protein)
chain: GCPQGRGDWAPTSCKQDSDCRAGCVCGPNGFCGEPRGPTIKPCPPCKCPAPNLLGGPSVFIFPPKIKDVLMISLSPIVTCVVVDVSEDDPDVQISWFVNNVEVHTAQTQTHREDYNSTLRVVSALPIQHQDWMSGKEFKCKVNNKDLPAPIERTISKPKGSVRAPQVYVLPPPEEEMTKKQVTLTCMVTDFMPEDIYVEWTNNGKTELNYKNTEPVLDSDGSYFMYSKLRVEKKNWVERNSYSCSVVHEGLHNHHTTKSFSRTPGK
B3: 2.5F-Fc: EETI-based knottin 2.5F fused to Fc domain of mouse Ig2a (protein)
chain: B2 chain with Q4R, G5P, W9N, A10P, T12L, S13T, R21L

Tests used:
[1] = circular dichroism
Gas6 [2] = biological target: T1, Gas6 (Homo sapiens, UniProt Q14393); assay: Yeast display binding of EETI 2.5D-Axl fusion to Gas6
T1 sequence (Q14393 31-678): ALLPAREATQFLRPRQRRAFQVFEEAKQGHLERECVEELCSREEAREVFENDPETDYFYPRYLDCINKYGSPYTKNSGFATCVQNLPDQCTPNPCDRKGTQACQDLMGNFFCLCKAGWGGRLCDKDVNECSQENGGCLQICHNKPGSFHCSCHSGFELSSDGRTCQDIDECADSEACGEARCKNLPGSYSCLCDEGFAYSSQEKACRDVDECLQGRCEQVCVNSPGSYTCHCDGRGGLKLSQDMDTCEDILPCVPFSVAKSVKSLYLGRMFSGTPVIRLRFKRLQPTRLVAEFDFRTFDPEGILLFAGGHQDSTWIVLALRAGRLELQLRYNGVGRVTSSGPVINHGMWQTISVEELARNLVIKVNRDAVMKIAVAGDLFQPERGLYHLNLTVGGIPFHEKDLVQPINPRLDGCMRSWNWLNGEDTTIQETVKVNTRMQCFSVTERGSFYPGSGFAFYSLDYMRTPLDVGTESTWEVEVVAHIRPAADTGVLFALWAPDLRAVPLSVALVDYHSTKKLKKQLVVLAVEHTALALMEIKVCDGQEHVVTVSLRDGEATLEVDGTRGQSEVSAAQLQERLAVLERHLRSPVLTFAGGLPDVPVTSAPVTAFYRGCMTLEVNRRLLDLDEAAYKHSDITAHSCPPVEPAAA

αvβ3 integrin [3] = biological target: T2, αvβ3 integrin (Homo sapiens, UniProt P05106+P06756); assay: cRGD competition of EETI 2.5D-Axl binding to K562-αvβ3 cells
T2 sequence (P06756 31-889 limits assumed): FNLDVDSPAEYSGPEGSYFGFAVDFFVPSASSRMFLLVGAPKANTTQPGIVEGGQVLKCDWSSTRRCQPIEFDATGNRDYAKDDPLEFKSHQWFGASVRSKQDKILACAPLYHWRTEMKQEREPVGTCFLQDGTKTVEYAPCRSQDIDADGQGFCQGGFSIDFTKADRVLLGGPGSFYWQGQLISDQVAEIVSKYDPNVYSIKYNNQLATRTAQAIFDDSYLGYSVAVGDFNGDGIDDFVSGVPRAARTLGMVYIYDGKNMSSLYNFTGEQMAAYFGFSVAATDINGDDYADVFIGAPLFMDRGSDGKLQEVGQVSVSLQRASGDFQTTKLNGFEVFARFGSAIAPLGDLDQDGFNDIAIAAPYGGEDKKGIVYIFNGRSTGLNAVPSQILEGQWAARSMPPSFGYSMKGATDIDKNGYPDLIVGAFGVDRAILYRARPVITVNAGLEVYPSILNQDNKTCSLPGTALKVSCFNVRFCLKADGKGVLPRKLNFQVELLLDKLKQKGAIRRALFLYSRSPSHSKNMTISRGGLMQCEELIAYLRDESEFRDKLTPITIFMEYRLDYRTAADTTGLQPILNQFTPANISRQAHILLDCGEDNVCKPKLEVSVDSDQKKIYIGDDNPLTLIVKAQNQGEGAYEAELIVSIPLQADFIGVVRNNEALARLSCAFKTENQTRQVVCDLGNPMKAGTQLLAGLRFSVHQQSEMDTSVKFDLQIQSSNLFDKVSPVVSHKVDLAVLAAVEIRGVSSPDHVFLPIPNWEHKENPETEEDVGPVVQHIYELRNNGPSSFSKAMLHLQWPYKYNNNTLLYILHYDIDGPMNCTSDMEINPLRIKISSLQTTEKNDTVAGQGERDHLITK
T2 sequence (P06756 891-1048 partner limits assumed): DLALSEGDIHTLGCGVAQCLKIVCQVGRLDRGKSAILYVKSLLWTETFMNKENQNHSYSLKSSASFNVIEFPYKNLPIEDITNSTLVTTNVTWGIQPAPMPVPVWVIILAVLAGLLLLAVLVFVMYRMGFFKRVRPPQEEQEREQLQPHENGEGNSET
T2 sequence (P05106 27-788): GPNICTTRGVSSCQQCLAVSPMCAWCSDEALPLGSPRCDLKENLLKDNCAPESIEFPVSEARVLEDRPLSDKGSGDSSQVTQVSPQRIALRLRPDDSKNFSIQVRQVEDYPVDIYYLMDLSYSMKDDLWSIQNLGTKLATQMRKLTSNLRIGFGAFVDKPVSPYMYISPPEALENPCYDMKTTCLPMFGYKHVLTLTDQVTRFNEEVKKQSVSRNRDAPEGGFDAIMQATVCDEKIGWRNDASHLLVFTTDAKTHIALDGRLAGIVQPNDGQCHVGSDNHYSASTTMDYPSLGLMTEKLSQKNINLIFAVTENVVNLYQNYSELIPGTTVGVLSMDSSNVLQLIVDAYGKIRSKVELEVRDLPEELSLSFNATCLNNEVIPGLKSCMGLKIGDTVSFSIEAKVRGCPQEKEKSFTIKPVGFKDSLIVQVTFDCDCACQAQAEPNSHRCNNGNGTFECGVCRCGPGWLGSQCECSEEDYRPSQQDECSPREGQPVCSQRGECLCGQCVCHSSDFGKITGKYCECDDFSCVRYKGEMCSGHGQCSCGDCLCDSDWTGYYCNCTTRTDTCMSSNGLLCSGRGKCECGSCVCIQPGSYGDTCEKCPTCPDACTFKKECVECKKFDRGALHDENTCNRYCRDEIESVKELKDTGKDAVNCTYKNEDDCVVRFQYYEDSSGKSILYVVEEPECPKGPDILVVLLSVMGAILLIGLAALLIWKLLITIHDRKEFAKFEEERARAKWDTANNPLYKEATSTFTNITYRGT

αvβ3 integrin [4] = biological target: T2, αvβ3 integrin; assay: Binding of soluble EETI 2.5D-Axl to K562-αvβ3 cells (flow cytometry); details: soluble protein from Pichia pastoris
Gas6 [5] = biological target: T1, Gas6; assay: Yeast display binding to Gas6 in presence of saturating αvβ3 integrin; details: 20 or 100 nM Gas6 with 200 nM αvβ3 integrin
αvβ3 integrin [6] = biological target: T2, αvβ3 integrin; assay: Yeast display binding to αvβ3 integrin in presence of saturating Gas6; details: 100 or 200 nM αvβ3 integrin with 100 nM Gas6
αvβ3 integrin [7] = biological target: T2, αvβ3 integrin; assay: Yeast display binding of EETI 2.5D-Axl fusion to soluble αvβ3 integrin; details: 20, 50 or 100 nM αvβ3 integrin
PC3 cells = assay: Inhibition of PC3 cell adhesion to vitronectin by knottin-Fc proteins; type: cell-based; details: knottin-Fc fusions, FIG. 10
Experimental: Negative control is an irrelevant protein.
In another tumor model, the ability of the knottin-Fc proteins to inhibit PC3 cell adhesion to the extracellular matrix (ECM) protein vitronectin was analyzed. […] As the inhibition of integrin-ECM adhesion induces caspase-mediated apoptosis, this biological mechanism will be explored in future studies.

[8] = Gel filtration chromatography of knottin-Fc; type: physicochemical
sk0v3 cells = assay: Binding of knottin-Fc proteins to sk0v3 cells; details: measured against wild-type EETII-Fc
Experimental: The binding of the knottin-Fc proteins to tumor cell lines were then measured.

Row | Molecule | Tm (° C.) [1] [°C] | melting temperature (Tm) [1] [°C] | binding to Gas6 (Gas6 [2]; 0.2, 2 or 20 nM Gas6) | binding to Gas6 (Gas6 [2]; 0.2, 2 or 20 nM Gas6, listed as 2.5D-Axl) | binding of EETI 2.5D-Axl to K562-αvβ3 cells with molar excess of cRGD (αvβ3 integrin [3]) | equilibrium binding to cells transfected to overexpress αvβ3 integrin (αvβ3 integrin [4]) | binding to Gas6 in presence of saturating αvβ3 integrin (Gas6 [5]) | binding to Gas6 in presence of saturating αvβ3 integrin (Gas6 [5]; listed as 2.5D-Axl) | binding to αvβ3 integrin in presence of saturating Gas6 (αvβ3 integrin [6]) | binding to αvβ3 integrin in presence of saturating Gas6 (αvβ3 integrin [6]; listed as 2.5D-Axl) | binding to soluble αvβ3 integrin (αvβ3 integrin [7]) | binding to soluble αvβ3 integrin (αvβ3 integrin [7]; listed as 2.5D-Axl) | inhibition of PC3 cell adhesion to vitronectin (PC3 cells) | tendency to aggregate [8] | affinity to sk0v3 cells (sk0v3 cells)
1 | B1 | 52 ± 0.7 | ~52 | levels comparable to the mono-specific proteins; also recorded: affinities similar to its corresponding mono-specific components | maintained wild-type Axl's affinity | binding specifically to αvβ3 integrin | consistent with that previously determined for 2.5D | not affected; also recorded: maintains affinity to Gas6 | the same as when they were measured individually | not affected; also recorded: is not lost | the same as when they were measured individually | levels comparable to the mono-specific proteins; also recorded: affinities similar to its corresponding mono-specific components | matched that of 2.5D | – | – | –
2 | B2 | – | – | – | – | – | – | – | – | – | – | – | – | low nanomolar range | no tendency to aggregate | –
3 | B3 | – | – | – | – | – | – | – | – | – | – | – | – | low nanomolar range | – | greater affinity
